Experimental findings from the RNAGym collection of RNA variant scans (doi:10.1073/pnas.2313332121) are described below.

Sequences and labels used below:
B1: TPR t1 (parent)
chain: GACCAAUCUGCCCUCAGAGCUCGAGAACAUCUUCGGAUGCAGAGGAGGCAGGCUUCGGUGGCGCGAUAGCGCCAACGUCCUCAACCUCCAAUGCAUCCCACCACAUGAUGAUGCCUGAAGAGCCUUGGUUUUUUG

Variants of B1 are the subject of this series. As to the kind of experiment: polymerase ribozyme fitness, log enrichment relative to wild type (log ratio); higher = more active; in vitro selection for triplet polymerase activity. Put shortly:
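Each subunit of a heterodimeric triplet polymerase ribozyme was mutagenized into a library by PCR, transcribed, and subjected to one round of in vitro selection, run in triplicate. Libraries were annealed with a biotinylated primer, the partner subunit and triplets, incubated frozen at −7 °C, and extended constructs were gel-excised, captured on streptavidin beads and recovered by RT-PCR. Input and output libraries were sequenced on Illumina, keeping genotypes with ≥10 input reads and ≥1 read per output. Fitness is log base 2 of genotype enrichment divided by wild-type enrichment, from inverse-variance-weighted replicate averages.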
In the case of GACCAAUCUGCCCUCAGAGCUCGAGAACAUCUUCGGAUGCAGAGGAGGCUGGCUUCGGUGGCGCGAUAGGGCCAACGUCCUCAACCUCCAAUGCAUCCCACCACAUGAUGAUGCCUGAAGAGCCUUGGUUUUUUG [A50U C70G], the “polymerase ribozyme fitness (log ratio)” value is -4.57. Regarding GACCAAUCUGCCCUCAGAGCUCGAGAACAUCUUCGGAUGCAGAGGAGGCUGGCUUGGGUGGCGCGAUAGUGCCAACGCCCUCAACCUCCAAUGCAUCCCACCACAUGAUGAUGCCUGAAGAGCCUUGGUUUUUUG [A50U C56G C70U U78C], the “polymerase ribozyme fitness (log ratio)” value was -5.64.

Consider GACCAAUCUGCCCUCAGAGCUCGAGAACAUCUUCGGAUGCAGAGGAGGCUGGCUUCGGUGGCGCGAUAGCGCCAACGUCCUCAACCUCCAAUGCAUCCCACCACAUGGUGAUGCCUGAAGAGCCUUGGUUUUUUG [A50U A108G], for which the “polymerase ribozyme fitness (log ratio)” value was -3.01. GACCAAUCUGCCCUCAGAGCUCGAGAACAUCUUCGGAUGCAGAGGAGGCUGGCUUCGGUGGCGUGAUAGCGACAACGUACUCAACCUCCAAUGCAUCCCAACACAUGAUGAUGCCUGAAGAGCCUUGGUUUUUUG [A50U C64U C72A C79A C101A]: the “polymerase ribozyme fitness (log ratio)” value was -5.1. Regarding GACCAAUCUGCCCUCAGAGCUCGAGAACAUCUUCGGAUGCAGAGGAGGCUAGCUUCGGUGGCGUGAUAGCGCCAACGUCCUAAACCUCCAAUGCAUCCCACCACAUGAUGAUGCCUGAGGAGCCUUGGUUUUUUG [A50U G51A C64U C82A A119G], the “polymerase ribozyme fitness (log ratio)” value is -0.277. For GACCAAUCUGCCCUCAGAGCUCGAGAACAUCUUCGGAUGCAGAGGAGGCUGGCUUCGGUGUCGCGAUAGCGCCAACGUCCUCAACCUCCAAUGCAUCCCACCACAUGAUAAUGCCUGAAGAGCCUUAGUUUUUUG [A50U G61U G110A G127A], the “polymerase ribozyme fitness (log ratio)” value is -3.84. As for GACCAAUCUGCCCUCAGAGCUCGAGAACAUCUUCGGAUGCAGAGGAGGCGGGCUUCGGUGGCGCGAUAGCGCCAACGUCCUCAACCUCCAAUGCAUCCCACCACAUGAUUAUGCCUGAAGAGCCUUGGUUUUUUG [A50G G110U], the “polymerase ribozyme fitness (log ratio)” value is -0.639.

Turning to GACCAAUCUGCCCUCAGAGCUCGAGAACAUCUUCGGAUGCAGAGGAGGCUGGCUUUGGUGGCGCGAUAGCGCCAACGUCCUCCACCUCCAAUGCAUCCCACCACAUGAUGAUGCCUGAAGAGCCUUGGUUUUUUG [A50U C56U A83C], the “polymerase ribozyme fitness (log ratio)” value was -1.21. Consider GACCAAUCUGCCCUCAGAGCUCGAGAACAUCUUCGGAUGCAGAGGAGGCUGGCUUCGGUGGCGCGAUAGCGCCAACGUCCUCAACCUCCAAUGCAUCCCACCACAUGAUCAUGCCUGAAGAGCCUUGGUUUUUUG [A50U G110C], for which the “polymerase ribozyme fitness (log ratio)” value is -4.17.

GACCAAUCUGCCCUCAGAGCUCGAGAACAUCUUCGGAUGCAGAGGAGGCGGGCUUCGGUGGCGCGAUAGCGCCAACGUCCUCAACCUCCAAUGCAUCCCACCACAGGAUGAUGCCGGAAGAGCCUUGGUUUUUUG [A50G U106G U116G]: the “polymerase ribozyme fitness (log ratio)” value was -3.36. With GACCAAUCUGCCCUCAGAGCUCGAGAACAUCUUCGGAUGCAGAGGAGGCUGGCUUCGGUGGCGCGAUAGCGCCAACGUCCUCAACCUCCAAUGCAUCCCACCACAUGAUGAUGCCUGAUGAGCCUUGGUUUUUUG [A50U A119U], the “polymerase ribozyme fitness (log ratio)” value was -1.31. Take GACCAAUCUGCCCUCAGAGCUCGAGAACAUCUUCGGAUGCAGAGGAGGCUGGCUUCCGUCGCGCGAUAGCGCCAACGUCCUCAAGCUCCAAUGCAUCCCACCACAUGAUGAUACCUGAAGAGCCUUGGUUUUUUG [A50U G57C G60C C85G G113A]: the “polymerase ribozyme fitness (log ratio)” value was -2.27. Under GACCAAUCUGCCCUCAGAGCUCGAGAACAUCUUCGGAUGCAGAGGAGGCUGGCUUCGGUGGCGCGAUAGCUCCAACGUCCUCAACCUCCAAUGCAUCCCACCACAUGAUGAUGCCUGAAGAGCCUUAGUUUUUUG [A50U G71U G127A] stands -2.67; under GACCAAUCUGCCCUCAGAGCUCGAGAACAUCUUCGGAUGCAGAGGAGGCUGGCUUCGGUGGCGCGAUAGCGCCAACGUCCUCAACCUCCAAUGCAUCCCACCACAUGAUGAUGCCUGAAGAGCAUUGGUUUUUUG [A50U C124A], 0.575. Under GACCAAUCUGCCCUCAGAGCUCGAGAACAUCUUCGGAUGCAGAGGAGGCGGGCGUCGGUGGCGCGAUAGCGCCAACGUCCUCAACCUCCAAUGCCUCCCACCACAUGAUGAUGCCUGAAGAGCCUUGGUUUUUUG [A50G U54G A95C] stands -1.88.

As for GACCAAUCUGCCCUCAGAGCUCGAGAACAUCUUCGGAUGCAGAGGAGGCUGGCUUCGGUGGCGCGAUAGCGCCAACGUCCUCAACCUCCAAUGCAUCCCCCCACAUGAUGGUGCCUGAAGAGCCUUGGUUUUUUG [A50U A100C A111G], the “polymerase ribozyme fitness (log ratio)” value was -2.38. For GACCAAUCUGCCCUCAGAGCUCGAGAACAUCUUCGGAUGCAGAGGAGGCUGGCUUCGGUGGCCCGAUAGCGCCAACGUCCUCAACCUCCAAUGCAUCCCACCACAUGAUGAUGCCUGAAGAGCCUUGGUUUUUUG [A50U G63C], the “polymerase ribozyme fitness (log ratio)” value was -1.63. Regarding GACCAAUCUGCCCUCAGAGCUCGAGAACAUCUUCGGAUGCAGAGGAGGCUGGCUUCGGUGGCGCGAUAGCGCCAACGUCCUCAACCUCCAAUGCAUCCCACCACAUGAUGAUGCCUGAAGAGGCUUGGUUGUUUG [A50U C123G U131G], the “polymerase ribozyme fitness (log ratio)” value is 0.128. Under GACCAAUCUGCCCUCAGAGCUCGAGAACAUCUUCGGAUGCAGAGGAGGCUGGCUUCGGUGGCGCGAUAGCGCCAACAUCCUCAACCUCCAAUGCAUUCCACCACACGAUGAUGCCUGAAGAGCCUUGGUUUUUUG [A50U G77A C97U U106C] stands -2.11; under GACCAAUCUGCCCUCAGAGCUCGAGAACAUCUUCGGAUGCAGAGGAGGCUGGCUUCGGUGGUGCGAUAGGGCCAACGUCCUCAACCUCCAAUGCAUCCCACCACAUGAUGAUGCCUUAAAAGCCUUGGUUUUUUG [A50U C62U C70G G117U G120A], -6.48; under GACCAAUCUGCCCUCAGAGCUCGAGAACAUCUUCGGAUGCAGAGGAGGCUGGUUUCGGUGGCGCGAUAGCGCCAACGUCCUCGCCCUCGAAUGCAUCCCACCACAUGAUGAUGCUUGAAGAGCCUUGGUUUUUUG [A50U C53U A83G A84C C89G C115U], -5.92.
